The DeepSol protein solubility set

Experiment: soluble on expression in E. coli; label from the status in PepcDB or PDB records

| Sequence | soluble on expression in E. coli |
| --- | --- |
| MGNIKVTRDDWLNVAMDVLVSDGVEQVKVMNLAERMAVSRSSFYWYFKSRQDLLDALLAKWQATNTAGLIAQTELPAQTITGAVCNLFHCVVDPALFDTALDFAVRDWARRSGKVRRLLDLSDSRRLEALTAMFLRYDYSQIEAETRARVLYYMQIGYDLAQMNEPIDQRLSFVRHYLFVFTGVQARDEEVAAFSAFARGFWEGRRP | not soluble |
| MGQLFSSPQSEHQDLASSFTEYFKKFKTGNKIISQDIITLVELSLAKGNIQEANSAIRNALKEIDSTPLNVAVTGESGSGKSSFINTLRGIGHEEKGAAKTGVVEETMERHPYKHPNMPNVVFWDLPGIGTQTFPPKTYLEKMKFYEYDFFIIISATRFKKNDIDLAKAISMMKKEFYFVRTKVDSDLNNEEDFKPQNFDREKVLQNIRLNCVNTFKENGIAEPQIFLVSNKNVCHYDFPVLIDRLISDLPLYKRQNFMLSLPNITESAIEKKQQFLKQSIWLEGFAPDLLSIKPSLAFLNSDLETLEKSMKFYRSVFGVDEASLKSLATAWKIPVDQVEAMMKSPAVFKPTDEETIQERLSRYVLEICFANRYLFRKNLFLRNVFYLKYYFLDMVTEDAKTLLKEIYLRNKLPSN | not soluble |
| MGQTLFDKVWNRHVLYGKLGEPQLLYIDLHLIHEVTSPQAFEGLRLQNRKLRRPDLTFATLDHNVPTIDIFNIKDEIANKQITTLQKNAIDFGVHIFDMGSDEQGIVHMVGPETGLTQPGKTIVCGDSHTATHGAFGAIAFGIGTSEVEHVFATQTLWQTKPKN | not soluble |
| MGRAAEVPGPEPGQQEQLVFGSGDAVELSCPPPGGGPMGPTVWVKDGTGLVPSERVLVGPQRLQVLNASHEDSGAYSCRQRLTQRVLCHFSVRVTDAPSSGDDEDGEDEAEDTGVDTGAPYWTRPERMDKKLLAVPAANTVRFRCPAAGNPTPSISWLKNGREFRGEHRIGGIKLRHQQWSLVMESVVPSDRGNYTCVVENKFGSIRQTYTLDVLERSPHRPILQAGLPANQTAVLGSDVEFHCKVYSDAQPHIQWLKHVEVNGSKVGPDGTPYVTVLKTAGANTTDKELEVLSLHNVTFEDAGEYTCLAGNSIGFSHHSAWLVVLPAEEELVE | soluble |
| MGREFLDLFEQWAESYDQSVEGYDEQYRDVFAGYDRILSTVADKAGQVVLEFGIGTGNLTKKLLERGKTVYGIEPSAPMRKKAAEKLGERAVIMDGDFLQFPLPPEPIDTIASTYAFHHLTDAEKDEAIAKYSQLLHSGGKIVFADTAFRDKEAFRQTVEAARARGFHDLADDLEREYYTTLDVLASLFANHGFSVSFAQQNAFVWVMEAVKQTTLEHHHHHH | soluble |
| MGRGSFTQIDTPDQVTERMRALLVKLESPAVTDLTATFSEPGIDVTPARLPDLYRGEPLTLSARMGQARGTLTLTGRIGGQPWQTQLHLDAAQDGTGIGKLWARAKIAEAETARLTGGLTAEAADAAILRLALDHGLTTRLTSLVAVDATPRRPAGMRLASTELPLNLPAGWDFETVFGTQDELEHHHHHH | not soluble |
| MGRIKRGLDYFPMSTSFMHDRMVRRIMRREGDSAFATLVETLSYIYAGKGYYISVGDEFYEELVDSLYSTELDDVKRIISLSVEYGLFDAGLFRQYNILTSADIQRQYLFITKRRSSALIEPDYCLLESEEITSYRSSQSGKSSTDDSLDSECAEALNGDADHKTACTVTSSFDSVTMEDEIATSGTQNKRKQIKINQNKVNHLPNPPQGGDEGGKYLKSRTAVTQEDIDCLQPPCDGVQRNFQGLTDNLRLYKVPPSEQYAIILKSNFGAIGNPVWKGFNTIRGSNGKIRLPGHYLLSIIN | not soluble |
| MGRINELRMISRVAQMYFSEHKRQAEIAQHLNLSQATVSRMLKRAEAEGIVRTSIIPPPGTYSDLEAQLRERFDLPEAIVVDCSEDRDGAIMARIGEAAAHFLEVTLSQNEIIGVSSWSQTIFKMVENIHPLKGAKARYIVQTLGGMGDPSVQTHATQITTRLARLTEAEPKLLPVPGVATSREAKLLMLADPFVRETIDLFGSITLAIVGVGAVEPSELLARSGNIFSTKELADLAQAGAVGDISLRFFDKDGKPVKTPLDDRVIGLPLENLSNVDRVIALAGGLKKTEAIAGALRTGVIDVLVTDKFTAERLVGQET | soluble |
| MGRQAMKKFVDVSHTIENGLITYKGLPAPIICDYLSREESRSFYEPGTEFQIGKIEMVTNTGTYIDVPFHRYADGKDLSEATVEQMAGLEGVVIPVDKHVKKIDVDVFKSADLHGKAVLIYTGWDEHWNTERYFEDHPYVTEEAANYLKEQKVALVGIDSHNIDDTSGKRRPVHTILLRADILIVEHLCKLGQLVDQSFLFYAVAPKFKGAGTFPVRAFAEIVLEHHHHHH | soluble |
| MGRTQPCGGSCISSTYTLKKNRPCGWSAPPGSRILNQQPQGWPHNQTGCNVHKKIVVPSATDMATRFTQDSFVFDCLSMYYVIDDPWAENCLAAGVNATNVTFGTEQPWDIVLRDFDSGLEKIERSPYLALATNRQEIDAANKQGKLAVIIGTQGSAMVDLEFHRLRTMHRLGMRYFGLAYTGPTMFADGCGESRNAGLSFAGIELIDACNDLGLILDLSHVGHRSREETVARSRFPVCTHSNSYALNPNDRNTTDETARAIRAKGGIMGICGLPKTVHPENATLNELLDHADHWVKTIDAAHVGFGLDFVEAYKSDRSTMPAASRLWRTRRPDIFGTVEEFHLQDYPLGIASIKQLPNLTQGLFDRGYAEKEVAGIIGGNWLRHFTEVYG | not soluble |
| MGRVFMVDLEGNIYICKLCKTHLSTDQDIMSKSFQCKNGRAYLFNNVVNVSVGEKEDRMMITGLHNVVDIFCVGCGSNVGWKYEFAHEKSQKYKEGKSVLELYKISGPHDSNDLVSDGDDA | not soluble |
| MGSDKIHHHHHHAAGQPRLVKSLVPDMPSQAPDYFCTWNLQGYVASYKSTELTRAAMTEDYLFGDGLYQNWVDCYPAIRKDLYFVMDDSWDIPKDVNDSPNLYLGCVELSSDRFPSFRGDAVERLKQLSEQIKSKGWKGVGGWICAQKAETHAAIPEEEYWKQRIKAANAAGFDYWKVDWGKEDRNGEWRRKLTAIGKRYAPHLYIEHALRNEFIEFSDVFRTYDVENITAQPITIRRICDLLPYKTVEGAKGIINCEDEPYIAVGLGCAIGVMRHPFAETLPDGAQDFVFPPVGRDIKRRLDEVVRGVRWHRIAEPFAVGYGTFAIDSVKLTDHWILQENETWNKGRTVGADVTADAPARVARNMKLPEVSGAPLSVCPFVLASRYPNGAVAVSTIGRNVGREYVTEKVAVSISVDRWDIPIGLFGYFKEVTMVFPSPLKTGKHTVFAQDLAGENPVDITSNVVIKDNRLIIPGEVISRVGLMNASEGDCSDPGMVIRVM | not soluble |
| MGSDKIHHHHHHAAGSPEEDMEDRVRIDPVAGGYYPSISPSAQTRGATPDGETLKDRPIFLLEDGSTIRLVVYDDAKNLLEEYSKAYLVRNAGTSGSSLLYPCEVDDNGAVISSSSTPLYMKAGTYYFRILSPAKALNSKGFVNIGNGEYLLATDDRYTQTAMTAVTITKIDEGGTLNNVQTLYLPPIINQTARMQFTVRAGEGVHTLEMLAEGIEISGIQQPLDNTTSFDWVNGDVLPVKVGDQSASVRITQATRNADNSLVAHTGVLPTDARSHSISVLLNLKVNGNPTQYQMLLTGLYLTAGHSYNYTATVKISNGVTVLTWQNRSWTENVVMDK | not soluble |
| MGSDKIHHHHHHAAVNRVGMGSSWRAGVKVGVGVSYQFEPGWIGLKSGLYYANRGYSLGDYPRTTESATYVLKEMMTGGITQHFLQLPVMADFSWKVSKEVRMHLAVGMYAGVSVKNDTNWGSSFTMGYSKEPQALGKYVKSTGLGYSYGYGHSGYDEAENADHPFRDVNSFDWGLTTSFGIEVNNWVMNLGYDLSLGDEGGNYKIDGDNFSLYEVRSVGANYNTMSLTVGYKFKL | not soluble |
| MGSDKIHHHHHHACDGILEGIYDSPAASDSNELGFIRTDPSTHSGTIYIDATDYRRWTFIDFHTQKVDSVNVTDSEQKEPEEWDIAVHRYDVKTNAGAVLETGFTGFSALRNADAMPEGAYVEDVWTTAKIAIDMSGMMDGNIVYMESYYNEELSKWLNVDKSNMPPTYTLSNKVYMVKLKDGTYAAVRLTNYMNASGVKGFMTIDYIYPFEL | not soluble |
| MGSDKIHHHHHHACSSEEGGSQAMGGKGAVILDLAAETVFDTKTKAVDESTYLTDRPLADYKVKILDAQGHVVSGCEWKYSERPTGLIELSNGSYTVVASDGEEFNVNASTRNGIYMYGSSRFDVNSDKVAAVNVACKPACGKLVVKFGDTMATYFSDYAVHFSTQAAGENGSIIWPKGDTDPLYVKLAEAGENVTATFQFTKKADGTNAEVNTLTREMKWGSMWTITVNPKVEDTTGKVGITITFDDSTNDKPIDIEIPSDWL | not soluble |
| MGSDKIHHHHHHADDSVKIGFITDMSGLYADIDGQGGLEAIRMAVADFGGKVNGKPITVVYADHQNKADIAASRAREWFDRDGVDMLIGGTNSATGLSMNTVAGEKKKVYISIGAGADTLTNEQCTPYTVHYAYDTTALAKGTGSAVTKQGGKTWYFLTADYAFGKALEKNTADVVKANGGQVLGAVRHPLSASDFSSFLLQAQASKAQILGLANAGGDTINSIKAAKEFGITKTMKLAALLVFIDDIHSLGLETTQGLVLTDSWYWNKDATTRKWAERYFDKMKKMPSSLQAADYSATMTYLNAVKAVGSTDSDKVMAQLKKTKIDDFYAKGYIRQDGSMIHDMYLMQVKTPAESREPWDYYKITATIPGEQAFTTKAETRCALWK | not soluble |
| MGSDKIHHHHHHADNAPAKVQTALKKMYPKADGIAWSQDGGYYCADFMMNGYEKNVWFNAQGQWQMTQTEWGDTDELSATVYNAYASGPYSGWQVEDVTYVEFPKWQPIIVIKVGQQNVDIQYQLFYSPNGTLLRTRNVSYMGDILGPGTFL | not soluble |
| MGSDKIHHHHHHADNNKWKPLFGKNLENANYNPEVWSETDGVLGAVKDESIWTKDEYENFELDLDFKTDVGTNSGVVVYCTDTKDWIPNSVEIQIADDHCEKWGNGKPYEKCGAIYGHLGAVQDKVVKKPGEWNHMRIKCAGQHIMVILNGKKVTEMDMSKWTSGTKNPDGSDIPSWLPKPFAELPTKGFIGLQGKHGDSLIWFRNIKIRSL | not soluble |
| MGSDKIHHHHHHADTASFLFDKYEDAQVLLRAGGELKSKMNYSIVVNKFYFIDPQDKQVKELANPGDILLIKIAGRTFYPESNGAGIEMLPTKPVVYVQYKATARKEAPMGAYGTRSETTAVQSYGTITSNGQSYKLEGEKIIVSNRHHVYWVEKDDKMKQFRNFKQLAKIYSKHRAEVEKYIEDNKVNFEDVDQIVKLCAYADSLK | not soluble |
| MGSDKIHHHHHHAEDDRMTPLSADSGDTADELIPIHISLTGDNDYHSSSFNDASTRSHSPLIAEWVGVKAFSPTRTGEQPDYEGPRIASMELTEDTLPRVSTRATVPAGVYFRLIVFRKSGNNYVFQSVADYASNGTGTPVLERGKLLTRSGTIRVVGYSFNTTADLGDMPSTYAYNSSTVSIPDMSKDFMTFDSGDITNVNSLSHNLPVSFSQKLCKLTITISPTGFPSNTITNCTGVYVKQGGNSTSWKIGPSTNVVAANTNNTAAFSPNTTLNTTIRMVPFAGARTITVHFNTLTVGGRTVNNNTEITSTQSVQLKEGKSYTLKIQFKKGPGINVPASNINLTQNGCTENDKTILSKLRWAEGNLNSQSNYNLTWASSTTDYGYYYIWKNVYVSSGYTGYGAVDPCTRLDESIYGSGWRTPTRSEFISLSRCSNKQLVKYNGIQGMWFMNSSTGLFLPAAGYRDGDKGSGTTATAYTNGTGSYYWSSDLNGNSAYGLYILKNDVFVDANGNRKSGVSVRCVHNL | not soluble |
